From patent US20110008383A1

Key:
[1] = molecular target: DR 13 molecules (UniProt P01903); assay: peptide competition assay with DR 13 molecules
[2] = molecular target: CS protein on PfPb transgenic sporozoites (P. falciparum CS repeats in the context of the P. berghei CS protein); assay: cell-based or functional assay

Substance | IC50 [1] | inhibition in TSNA, about 25 µg antibody [2]
P. falciparum peptide (T* universal epitope of the CS protein) | 1800 nM | 
MAB 2A10 (antibody) |  | 96%
